# Assay results from US20140087995A1 (published 2014).
# Numbered stars: 1 amine (or outer) side, 2 acyl side, 3 side chain; on linkers, the order of the positions; unused ones are H or OH. Bridge positions count the residues as written; N and C are the ends. Side chains are listed from the residue outwards. Ends that are not written are not given here. * marks the point of attachment. C20 diacid = O=C(O)CCCCCCCCCCCCCCCCCCC(=O)*; γGlu = O=C(O)[C@H](CCC(=O)[*:2])N[*:1]; AEEA = NCCOCCOCC(=O)O
# T1: human amylin receptor (human, UniProt P30988 25-474; O60896 24-148, limits assumed)
# T1 construct: whole, on cells; Used as cell membranes prepared from the Amylin 3(a)/CRE-luc BHK cells (Assay V); also called hAmylin-R; hAmylinR
# T1 sequence (looked up) 1: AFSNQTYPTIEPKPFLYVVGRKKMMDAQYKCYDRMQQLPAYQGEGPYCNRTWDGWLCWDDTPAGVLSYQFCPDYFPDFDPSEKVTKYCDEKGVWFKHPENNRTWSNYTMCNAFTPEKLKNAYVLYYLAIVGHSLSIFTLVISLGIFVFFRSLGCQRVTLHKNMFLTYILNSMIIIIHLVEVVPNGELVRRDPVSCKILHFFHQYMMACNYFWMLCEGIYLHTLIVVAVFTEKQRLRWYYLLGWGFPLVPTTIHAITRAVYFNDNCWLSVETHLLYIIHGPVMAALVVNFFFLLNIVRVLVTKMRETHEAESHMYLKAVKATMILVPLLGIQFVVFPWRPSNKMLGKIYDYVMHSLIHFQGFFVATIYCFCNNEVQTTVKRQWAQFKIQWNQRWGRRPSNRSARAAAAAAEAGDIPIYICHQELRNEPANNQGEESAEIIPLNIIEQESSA
# T1 sequence (looked up) 2: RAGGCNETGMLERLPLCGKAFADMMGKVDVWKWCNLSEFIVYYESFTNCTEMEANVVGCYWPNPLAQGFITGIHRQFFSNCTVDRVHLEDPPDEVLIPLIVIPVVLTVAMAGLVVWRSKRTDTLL
# Target: T1, human amylin receptor
# Test: SPA competition vs 125I-rat amylin, membranes of amylin 3(a) receptor BHK cells (Assay V)
# Procedure: The binding assay was performed using scintillation proximity assay (SPA) beads (RPNQ0001) from PerkinElmer and cell membranes from the Amylin 3(a)/CRE-luc cells (as described in Assay (II)) were used. Membranes were prepared in the following way; the cells were rinsed with PBS and incubated with Versene for approximately 5 min before harvesting. The cells were flushed with PBS and the cell-suspension was centrifuged for 5 min at 1000 rpm. Cells were homogenized (ultrathurrax) in a buffer containing 20 mM Na-HEPES and 10 mM EDTA (pH 7.4) and centrifuged at 20.000 rpm for 15 min. The resulting pellet was resuspended, homogenized and centrifuged (20.000 rpm, 15 min) in a buffer containing 20 mM Na-HEPES and 0.1 mM EDTA (pH 7.4, buffer 2). The resulting pellet was resuspended in buffer 2 and protein concentration was measured (BCA protein Assay, Pierce). The homogenate was kept cold during the whole procedure. The membranes were kept at −80° C. until use. The assay was performed in a 384 well Optiplate (PerkinElmer) in a total volume of 40 ul. Membranes were mixed with SPA beads. Final concentration of membranes 35 ng/μL final and SPA beads was 0.05 mg/well. Test-compounds were dissolved in DMSO and further diluted in assay buffer (50 mM Hepes, pH 7.4, 1 mM CaCl2, 5 mM MgCl₂, 0.1% OA and 0.02% Tween20). […] The final mixture was incubated with shaking at 400 rpm for 120 min at 25° C. prior to centrifugation (1500 rpm, 10 min). Samples were analyzed on TopCounter™ (Packard). The IC₅₀ was calculated using (one site binding competition analysis) GraphPad Prism5 as a measure of receptor affinity.
row,Binder,IC50
1,"K([AEEA-γGlu-C20 diacid])CNTATCATQRLANFLRHSSPNFGAIPSSTNVGSRTY-NH2 (disulfide 2-7; N-terminus assumed; SMILES CC[C@H](C)[C@H](NC(=O)[C@H](C)NC(=O)CNC(=O)[C@H](Cc1ccccc1)NC(=O)[C@H](CC(N)=O)NC(=O)[C@@H]1CCCN1C(=O)[C@H](CO)NC(=O)[C@H](CO)NC(=O)[C@H](Cc1c[nH]cn1)NC(=O)[C@H](CCCNC(=N)N)NC(=O)[C@H](CC(C)C)NC(=O)[C@H](Cc1ccccc1)NC(=O)[C@H](CC(N)=O)NC(=O)[C@H](C)NC(=O)[C@H](CC(C)C)NC(=O)[C@H](CCCNC(=N)N)NC(=O)[C@H](CCC(N)=O)NC(=O)[C@@H](NC(=O)[C@H](C)NC(=O)[C@@H]1CSSC[C@H](NC(=O)[C@@H](N)CCCCNC(=O)COCCOCCNC(=O)CC[C@H](NC(=O)CCCCCCCCCCCCCCCCCCC(=O)O)C(=O)O)C(=O)N[C@@H](CC(N)=O)C(=O)N[C@@H]([C@@H](C)O)C(=O)N[C@@H](C)C(=O)N[C@@H]([C@@H](C)O)C(=O)N1)[C@@H](C)O)C(=O)N1CCC[C@H]1C(=O)N[C@@H](CO)C(=O)N[C@@H](CO)C(=O)N[C@H](C(=O)N[C@@H](CC(N)=O)C(=O)N[C@H](C(=O)NCC(=O)N[C@@H](CO)C(=O)N[C@@H](CCCNC(=N)N)C(=O)N[C@H](C(=O)N[C@@H](Cc1ccc(O)cc1)C(N)=O)[C@@H](C)O)C(C)C)[C@@H](C)O, also called compound 38)",0.249 nM
2,"K([γGlu-γGlu-C20 diacid])CNTATCATQRLADFLRHSSPNFGAIPSSTNVGSDTY-NH2 (disulfide 2-7; N-terminus assumed; SMILES CC[C@H](C)[C@H](NC(=O)[C@H](C)NC(=O)CNC(=O)[C@H](Cc1ccccc1)NC(=O)[C@H](CC(N)=O)NC(=O)[C@@H]1CCCN1C(=O)[C@H](CO)NC(=O)[C@H](CO)NC(=O)[C@H](Cc1c[nH]cn1)NC(=O)[C@H](CCCNC(=N)N)NC(=O)[C@H](CC(C)C)NC(=O)[C@H](Cc1ccccc1)NC(=O)[C@H](CC(=O)O)NC(=O)[C@H](C)NC(=O)[C@H](CC(C)C)NC(=O)[C@H](CCCNC(=N)N)NC(=O)[C@H](CCC(N)=O)NC(=O)[C@@H](NC(=O)[C@H](C)NC(=O)[C@@H]1CSSC[C@H](NC(=O)[C@@H](N)CCCCNC(=O)CC[C@H](NC(=O)CC[C@H](NC(=O)CCCCCCCCCCCCCCCCCCC(=O)O)C(=O)O)C(=O)O)C(=O)N[C@@H](CC(N)=O)C(=O)N[C@@H]([C@@H](C)O)C(=O)N[C@@H](C)C(=O)N[C@@H]([C@@H](C)O)C(=O)N1)[C@@H](C)O)C(=O)N1CCC[C@H]1C(=O)N[C@@H](CO)C(=O)N[C@@H](CO)C(=O)N[C@H](C(=O)N[C@@H](CC(N)=O)C(=O)N[C@H](C(=O)NCC(=O)N[C@@H](CO)C(=O)N[C@@H](CC(=O)O)C(=O)N[C@H](C(=O)N[C@@H](Cc1ccc(O)cc1)C(N)=O)[C@@H](C)O)C(C)C)[C@@H](C)O, also called compound 2)",0.411 nM
3,"K([γGlu-C20 diacid])CNTATCATQRLANFLRHSSPNFGAIPSSTNVGSKTY-NH2 (disulfide 2-7; N-terminus assumed; SMILES CC[C@H](C)[C@H](NC(=O)[C@H](C)NC(=O)CNC(=O)[C@H](Cc1ccccc1)NC(=O)[C@H](CC(N)=O)NC(=O)[C@@H]1CCCN1C(=O)[C@H](CO)NC(=O)[C@H](CO)NC(=O)[C@H](Cc1c[nH]cn1)NC(=O)[C@H](CCCNC(=N)N)NC(=O)[C@H](CC(C)C)NC(=O)[C@H](Cc1ccccc1)NC(=O)[C@H](CC(N)=O)NC(=O)[C@H](C)NC(=O)[C@H](CC(C)C)NC(=O)[C@H](CCCNC(=N)N)NC(=O)[C@H](CCC(N)=O)NC(=O)[C@@H](NC(=O)[C@H](C)NC(=O)[C@@H]1CSSC[C@H](NC(=O)[C@@H](N)CCCCNC(=O)CC[C@H](NC(=O)CCCCCCCCCCCCCCCCCCC(=O)O)C(=O)O)C(=O)N[C@@H](CC(N)=O)C(=O)N[C@@H]([C@@H](C)O)C(=O)N[C@@H](C)C(=O)N[C@@H]([C@@H](C)O)C(=O)N1)[C@@H](C)O)C(=O)N1CCC[C@H]1C(=O)N[C@@H](CO)C(=O)N[C@@H](CO)C(=O)N[C@H](C(=O)N[C@@H](CC(N)=O)C(=O)N[C@H](C(=O)NCC(=O)N[C@@H](CO)C(=O)N[C@@H](CCCCN)C(=O)N[C@H](C(=O)N[C@@H](Cc1ccc(O)cc1)C(N)=O)[C@@H](C)O)C(C)C)[C@@H](C)O, also called compound 35) [N^ε1-[(4S)-4-carboxy-4-(19-carboxynonadecanoylamino)butanoyl]-[Arg17,Pro21,Pro27,Lys35]-h-amylin]",0.97 nM
4,"K([γGlu-C20 diacid])CNTATCATQRLANFLRHSSPNFGAIPSSTNVGSETY-NH2 (disulfide 2-7; N-terminus assumed; SMILES CC[C@H](C)[C@H](NC(=O)[C@H](C)NC(=O)CNC(=O)[C@H](Cc1ccccc1)NC(=O)[C@H](CC(N)=O)NC(=O)[C@@H]1CCCN1C(=O)[C@H](CO)NC(=O)[C@H](CO)NC(=O)[C@H](Cc1c[nH]cn1)NC(=O)[C@H](CCCNC(=N)N)NC(=O)[C@H](CC(C)C)NC(=O)[C@H](Cc1ccccc1)NC(=O)[C@H](CC(N)=O)NC(=O)[C@H](C)NC(=O)[C@H](CC(C)C)NC(=O)[C@H](CCCNC(=N)N)NC(=O)[C@H](CCC(N)=O)NC(=O)[C@@H](NC(=O)[C@H](C)NC(=O)[C@@H]1CSSC[C@H](NC(=O)[C@@H](N)CCCCNC(=O)CC[C@H](NC(=O)CCCCCCCCCCCCCCCCCCC(=O)O)C(=O)O)C(=O)N[C@@H](CC(N)=O)C(=O)N[C@@H]([C@@H](C)O)C(=O)N[C@@H](C)C(=O)N[C@@H]([C@@H](C)O)C(=O)N1)[C@@H](C)O)C(=O)N1CCC[C@H]1C(=O)N[C@@H](CO)C(=O)N[C@@H](CO)C(=O)N[C@H](C(=O)N[C@@H](CC(N)=O)C(=O)N[C@H](C(=O)NCC(=O)N[C@@H](CO)C(=O)N[C@@H](CCC(=O)O)C(=O)N[C@H](C(=O)N[C@@H](Cc1ccc(O)cc1)C(N)=O)[C@@H](C)O)C(C)C)[C@@H](C)O, also called compound 27) [N^ε1-[(4S)-4-carboxy-4-(19-carboxynonadecanoylamino)butanoyl]-[Arg17,Pro21,Pro27,Glu35]-h-amylin]",0.837 nM
5,"K([AEEA-γGlu-C20 diacid])CNTATCATQRLANFLRHSSPNFGAIPSSTNVGSETY-NH2 (disulfide 2-7; N-terminus assumed; SMILES CC[C@H](C)[C@H](NC(=O)[C@H](C)NC(=O)CNC(=O)[C@H](Cc1ccccc1)NC(=O)[C@H](CC(N)=O)NC(=O)[C@@H]1CCCN1C(=O)[C@H](CO)NC(=O)[C@H](CO)NC(=O)[C@H](Cc1c[nH]cn1)NC(=O)[C@H](CCCNC(=N)N)NC(=O)[C@H](CC(C)C)NC(=O)[C@H](Cc1ccccc1)NC(=O)[C@H](CC(N)=O)NC(=O)[C@H](C)NC(=O)[C@H](CC(C)C)NC(=O)[C@H](CCCNC(=N)N)NC(=O)[C@H](CCC(N)=O)NC(=O)[C@@H](NC(=O)[C@H](C)NC(=O)[C@@H]1CSSC[C@H](NC(=O)[C@@H](N)CCCCNC(=O)COCCOCCNC(=O)CC[C@H](NC(=O)CCCCCCCCCCCCCCCCCCC(=O)O)C(=O)O)C(=O)N[C@@H](CC(N)=O)C(=O)N[C@@H]([C@@H](C)O)C(=O)N[C@@H](C)C(=O)N[C@@H]([C@@H](C)O)C(=O)N1)[C@@H](C)O)C(=O)N1CCC[C@H]1C(=O)N[C@@H](CO)C(=O)N[C@@H](CO)C(=O)N[C@H](C(=O)N[C@@H](CC(N)=O)C(=O)N[C@H](C(=O)NCC(=O)N[C@@H](CO)C(=O)N[C@@H](CCC(=O)O)C(=O)N[C@H](C(=O)N[C@@H](Cc1ccc(O)cc1)C(N)=O)[C@@H](C)O)C(C)C)[C@@H](C)O, also called compound 26)",0.532 nM
